Measured values: patent US20210130436A1 (published 2021)
Residue numbers refer to the chain shown, from its start. In names and notes the source's numbering stands.

T1: TIGIT (Homo sapiens (Human), UniProt Q495A1 22-244)
T1 sequence: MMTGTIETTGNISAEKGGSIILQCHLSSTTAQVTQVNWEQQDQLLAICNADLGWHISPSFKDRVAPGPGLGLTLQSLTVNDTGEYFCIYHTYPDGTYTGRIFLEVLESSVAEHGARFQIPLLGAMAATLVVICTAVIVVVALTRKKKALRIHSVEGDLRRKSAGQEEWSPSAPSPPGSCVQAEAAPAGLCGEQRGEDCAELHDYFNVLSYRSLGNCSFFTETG

T2: CD96 (UniProt P40200 22-585, limits assumed)
T2 construct: whole, on cells
T2 sequence (looked up): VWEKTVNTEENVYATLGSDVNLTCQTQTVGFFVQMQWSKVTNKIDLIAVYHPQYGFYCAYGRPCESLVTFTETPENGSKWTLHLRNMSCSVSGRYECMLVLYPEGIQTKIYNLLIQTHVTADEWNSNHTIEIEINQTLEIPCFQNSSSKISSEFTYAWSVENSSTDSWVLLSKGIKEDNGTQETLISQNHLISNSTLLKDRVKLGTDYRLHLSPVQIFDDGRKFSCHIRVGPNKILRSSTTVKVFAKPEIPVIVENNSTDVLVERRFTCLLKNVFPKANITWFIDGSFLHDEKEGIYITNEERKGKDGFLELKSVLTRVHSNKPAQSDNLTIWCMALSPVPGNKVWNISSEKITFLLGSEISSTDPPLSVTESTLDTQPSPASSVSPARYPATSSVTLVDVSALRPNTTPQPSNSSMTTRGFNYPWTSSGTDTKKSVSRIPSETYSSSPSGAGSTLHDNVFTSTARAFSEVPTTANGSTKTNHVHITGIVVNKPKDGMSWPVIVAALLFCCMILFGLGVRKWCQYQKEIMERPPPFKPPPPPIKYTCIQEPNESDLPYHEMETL

T3: CD226 (Homo sapiens (Human), UniProt Q15762 19-336)
T3 sequence: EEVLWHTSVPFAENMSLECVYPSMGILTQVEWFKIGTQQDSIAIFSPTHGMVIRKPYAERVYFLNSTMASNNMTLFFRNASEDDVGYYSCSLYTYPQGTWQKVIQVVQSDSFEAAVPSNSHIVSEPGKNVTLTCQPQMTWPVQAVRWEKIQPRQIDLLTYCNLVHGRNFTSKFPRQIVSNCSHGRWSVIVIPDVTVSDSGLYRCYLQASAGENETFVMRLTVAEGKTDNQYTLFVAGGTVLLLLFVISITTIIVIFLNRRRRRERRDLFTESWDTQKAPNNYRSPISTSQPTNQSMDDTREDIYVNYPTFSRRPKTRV

B1: variant CD155 IgV-Fc S52L (Fc fusion, not shown: a dimerising Fc or GST)
chain: WPPPGTGDVVVQAPTQVPGFLGDSVTLPCYLQVPNMEVTHVSQLTWARHGELGSMAVFHQTQGPSYSESKRLEFVAARLGAELRNASLRMFGLRVEDEGNYTCLFVTFPQGSRSVDIWLRVL
B2: variant CD155 IgV-Fc S42A/S52Q/L104Q/G111R (Fc fusion, not shown: a dimerising Fc or GST)
chain: B1 chain with S42A, L52Q, L104Q, G111R
B3: variant CD155 IgV-Fc S42C (Fc fusion, not shown: a dimerising Fc or GST)
chain: B1 chain with S42C, L52S
B4: variant CD155 IgV-Fc S42A/S52L/L104E/G111R (Fc fusion, not shown: a dimerising Fc or GST)
chain: B1 chain with S42A, L104E, G111R
B5: variant CD155 IgV-Fc Q62F/L104E/G111R (Fc fusion, not shown: a dimerising Fc or GST)
chain: B1 chain with L52S, Q62F, L104E, G111R
B6: variant CD155 IgV-Fc Q62F (Fc fusion, not shown: a dimerising Fc or GST)
chain: B1 chain with L52S, Q62F
B7: variant CD155 IgV-Fc Q62Y (Fc fusion, not shown: a dimerising Fc or GST)
chain: B1 chain with L52S, Q62Y
B8: variant CD155 IgV-Fc S42L/S52L/Q62F/L104Q (Fc fusion, not shown: a dimerising Fc or GST)
chain: B1 chain with S42L, Q62F, L104Q
B9: variant CD155 IgV-Fc S42A/L104Q/G111R (Fc fusion, not shown: a dimerising Fc or GST)
chain: B1 chain with S42A, L52S, L104Q, G111R
B10: variant CD155 IgV-Fc S42L/S52Q/L104E (Fc fusion, not shown: a dimerising Fc or GST)
chain: B1 chain with S42L, L52Q, L104E
B11: variant CD80 IgV-Fc E35D/V68M/L85Q (Fc fusion, not shown: small tags and cut ends; a dimerising Fc or GST)
chain: VIHVTKEVKEVATLSCGHNVSVEELAQTRIYWQKDKKMVLTMMSGDMNIWPEYKNRTIFDITNNLSIMILALRPSDEGTYECVVQKYEKDAFKREHLAEVTLSVKAD
B12: variant CD80 IgV-Fc N48K (Fc fusion, not shown: small tags and cut ends; a dimerising Fc or GST)
chain: B11 chain with D35E, N48K, M68V, Q85L
B13: variant CD80 IgV-Fc M47L/V68M/L85Q (Fc fusion, not shown: small tags and cut ends; a dimerising Fc or GST)
chain: B11 chain with D35E, M47L
B14: variant CD80 IgV-Fc V68M (Fc fusion, not shown: small tags and cut ends; a dimerising Fc or GST)
chain: B11 chain with D35E, Q85L
B15: variant CD80 IgV-Fc K89N (Fc fusion, not shown: small tags and cut ends; a dimerising Fc or GST)
chain: B11 chain with D35E, M68V, Q85L, K89N
B16: variant CD80 IgV-Fc M47V (Fc fusion, not shown: small tags and cut ends; a dimerising Fc or GST)
chain: B11 chain with D35E, M47V, M68V, Q85L
B17: variant CD80 IgV-Fc M47V/N48K (Fc fusion, not shown: small tags and cut ends; a dimerising Fc or GST)
chain: B11 chain with D35E, M47V, N48K, M68V, Q85L
B18: variant CD80 IgV-Fc M47V/K89N (Fc fusion, not shown: small tags and cut ends; a dimerising Fc or GST)
chain: B11 chain with D35E, M47V, M68V, Q85L, K89N
B19: variant CD80 IgV-Fc V68M/L85Q (Fc fusion, not shown: small tags and cut ends; a dimerising Fc or GST)
chain: B11 chain with D35E
B20: variant CD80 IgV-Fc M47V/V68M (Fc fusion, not shown: small tags and cut ends; a dimerising Fc or GST)
chain: B11 chain with D35E, M47V, Q85L

Molecular target: T1, TIGIT
Experiment: flow cytometry, Fc fusion at 100 nM, TIGIT-transfected cells

| MFI at 100 nM [MFI] | Binder |
| --- | --- |
| 2220 | B1 |
| 1810 | B2 |
| 1910 | B3 |
| 2260 | B4 |
| 1970 | B5 |
| 2210 | B6 |
| 2530 | B7 |
| 2020 | B8 |
| 1920 | B9 |
| 1950 | B10 |

Molecular target: T4, CD28 endogenously expressed on Jurkat/IL2 reporter cells (human, UniProt P10747 19-220)
T4 construct: also called Jurkats (CD28)
Experiment: flow cytometry, Jurkat cells (CD28); MFI relative to WT CD80 ECD-Fc

| Fold change to WT CD80 [fold] | Binder |
| --- | --- |
| 0.1 | B11 |
| 0.1 | B12 |
| 0.1 | B13 |
| 0.1 | B14 |
| 0.1 | B15 |
| 0.1 | B16 |
| 0.6 | B17 |
| 0.3 | B18 |
| 0.1 | B19 |
| 0.5 | B20 |

Molecular target: T5, human CTLA4 (CTLA-4), full-length, on CHO cells (human, UniProt P16410 36-223)
T5 construct: also called huCTLA4
T5 sequence (P16410 36-223): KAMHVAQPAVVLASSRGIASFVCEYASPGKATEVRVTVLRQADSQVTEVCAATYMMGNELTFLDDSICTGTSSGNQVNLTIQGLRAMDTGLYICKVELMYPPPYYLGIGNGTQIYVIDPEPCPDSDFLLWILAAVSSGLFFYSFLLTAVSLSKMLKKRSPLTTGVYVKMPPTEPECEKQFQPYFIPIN
Experiment: flow cytometry, CHO/CTLA4 cells; MFI relative to WT CD80 ECD-Fc

| Fold change to WT CD80 [fold] | Binder |
| --- | --- |
| 1.1 | B11 |
| 0.1 | B12 |
| 0.3 | B13 |
| 0 | B14 |
| 0 | B15 |
| 0.8 | B16 |
| 1.1 | B17 |
| 0.8 | B18 |
| 0.1 | B19 |
| 0.2 | B20 |

Molecular target: T6, human PD-L1, full-length, on CHO cells (human, UniProt Q9NZQ7 19-290)
T6 construct: also called huPD-L1; CD274
T6 sequence (Q9NZQ7 19-290): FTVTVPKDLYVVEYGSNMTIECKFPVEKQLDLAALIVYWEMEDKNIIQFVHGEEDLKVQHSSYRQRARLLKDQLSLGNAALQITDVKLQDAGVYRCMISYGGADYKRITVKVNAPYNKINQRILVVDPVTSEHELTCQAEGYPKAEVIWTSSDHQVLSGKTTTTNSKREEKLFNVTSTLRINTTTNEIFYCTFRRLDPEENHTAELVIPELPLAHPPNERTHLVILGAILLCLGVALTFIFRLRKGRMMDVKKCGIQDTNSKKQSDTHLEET
Experiment: flow cytometry; PD-L1 MFI over CD28 MFI

| Ratio of PDL1:CD28 [ratio] | Binder |
| --- | --- |
| 78.4 | B11 |
| 8 | B12 |
| 66.3 | B13 |
| 3.1 | B14 |
| 0.9 | B15 |
| 33.7 | B16 |
| 7.5 | B17 |
| 3.2 | B18 |
| 3.8 | B19 |
| 13.1 | B20 |

Molecular target: T6, human PD-L1, full-length, on CHO cells
Experiment: flow cytometry, CHO/PD-L1 cells; MFI relative to WT CD80 ECD-Fc

| Fold change to WT CD80 [fold] | Binder |
| --- | --- |
| 46.6 | B11 |
| 3.8 | B12 |
| 31.6 | B13 |
| 0.9 | B14 |
| 0.4 | B15 |
| 18.1 | B16 |
| 24.1 | B17 |
| 4.9 | B18 |
| 2.7 | B19 |
| 33.5 | B20 |

Molecular target: T4, CD28 endogenously expressed on …
Experiment: flow cytometry, Jurkat cells (CD28)

| MFI at 33.3 nM [MFI] | Binder |
| --- | --- |
| 76.2 | B11 |
| 60.1 | B12 |
| 60.9 | B13 |
| 37.9 | B14 |
| 56.3 | B15 |
| 68.7 | B16 |
| 413 | B17 |
| 197 | B18 |
| 91.7 | B19 |
| 328 | B20 |

Molecular target: T6, human PD-L1, full-length, on CHO cells
Experiment: flow cytometry, CHO cells stably expressing PD-L1

| MFI at 33.3 nM [MFI] | Binder |
| --- | --- |
| 5970 | B11 |
| 481 | B12 |
| 4040 | B13 |
| 118 | B14 |
| 52.8 | B15 |
| 2320 | B16 |
| 3080 | B17 |
| 622 | B18 |
| 347 | B19 |
| 4290 | B20 |

Molecular target: T2, CD96
Experiment: flow cytometry, Fc fusion at 100 nM, CD96-transfected cells

| MFI at 100 nM [MFI] | Binder |
| --- | --- |
| 1640 | B2 |
| 1590 | B3 |
| 1610 | B4 |
| 1520 | B5 |
| 2760 | B6 |
| 1830 | B7 |
| 2320 | B8 |
| 1700 | B9 |
| 1700 | B10 |

Molecular target: T5, human CTLA4 (CTLA-4), full-length, on …
Experiment: flow cytometry, CHO cells stably expressing CTLA4

| MFI at 33.3 nM [MFI] | Binder |
| --- | --- |
| 42800 | B11 |
| 4950 | B12 |
| 11100 | B13 |
| 568 | B14 |
| 944 | B15 |
| 33300 | B16 |
| 44600 | B17 |
| 32400 | B18 |
| 3290 | B19 |
| 7280 | B20 |

Molecular target: T3, CD226
Experiment: flow cytometry, Fc fusion at 100 nM, CD226-transfected cells

| MFI at 100 nM [MFI] | Binder |
| --- | --- |
| 2680 | B1 |
| 2160 | B2 |
| 2100 | B3 |
| 1890 | B4 |
| 2040 | B5 |
| 2570 | B6 |
| 2620 | B7 |
| 2640 | B8 |
| 1900 | B9 |
| 6470 | B10 |
